From paper PMC5676751

Molecular target: HER2 on HER2-expressing SKOV3 and BT474 cells (human (endogenous in SKOV3 and BT474)) (UniProt P04626)
Assay: radioligand binding; LigandTracer Yellow, living SKOV3 cells (10^6) on a segment of a dish; radiolabeled ADAPT at 0.333 and 1 nM; association and dissociation recorded, duplicates; InteractionMap software, two types of interaction

Row | KD1 (first of two types of interaction) [pM] | KD2 (second of two types of interaction) [nM] | Substance
1 | 174 | – | ^99mTc-DEAVDANS-ADAPT6-GSSC (designed binder)
2 | 32.3 | 1.31 | ^111In-DEAVDANS-ADAPT6-GSSC-DOTA (designed binder)
